The values that follow come from paper PMC2173288 (The Journal of Cell Biology, 2002).

The target of one experiment is Glo3p (UniProt P38682 1-493). Nature of the experiment: pull-down.
For the next experiment, the target named is Sar1p (UniProt P20606 1-190). The experiment can be described thus: pull-down.
Chain of Sar1p (P20606 whole entry): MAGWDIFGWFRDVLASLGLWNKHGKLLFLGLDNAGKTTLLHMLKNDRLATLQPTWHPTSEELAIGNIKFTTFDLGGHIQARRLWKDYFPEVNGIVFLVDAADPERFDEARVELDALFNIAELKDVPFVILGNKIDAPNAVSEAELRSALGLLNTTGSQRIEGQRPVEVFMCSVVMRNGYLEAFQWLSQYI

Chain of Glo3p (P38682 whole entry): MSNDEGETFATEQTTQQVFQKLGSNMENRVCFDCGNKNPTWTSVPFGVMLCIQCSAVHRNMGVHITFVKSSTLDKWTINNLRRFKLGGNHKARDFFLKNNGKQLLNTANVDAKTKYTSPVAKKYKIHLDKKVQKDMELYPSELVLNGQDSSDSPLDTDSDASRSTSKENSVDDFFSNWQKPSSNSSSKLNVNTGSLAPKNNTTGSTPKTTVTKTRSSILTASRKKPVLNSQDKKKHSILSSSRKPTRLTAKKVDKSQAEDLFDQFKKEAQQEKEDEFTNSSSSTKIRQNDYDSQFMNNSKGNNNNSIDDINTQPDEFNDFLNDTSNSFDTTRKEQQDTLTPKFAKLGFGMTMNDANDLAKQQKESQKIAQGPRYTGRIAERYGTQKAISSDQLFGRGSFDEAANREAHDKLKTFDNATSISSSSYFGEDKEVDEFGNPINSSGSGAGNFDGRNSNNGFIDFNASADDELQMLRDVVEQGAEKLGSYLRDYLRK

B1: Bet1p-(41–119) (domain or fragment)
chain: TDKLDYSQSTLASLESQSEEQMGAMGQRIKALKSLSLKMGDEIRGSNQTIDQLGDTFHNTSVKLKRTFGNMMEMARRSG
Consider B1, for which the binding result in the experiment with Glo3p was “binds”.

B2: Bet1p-GST (domain or fragment)
chain: MSSRFAGGNAYQRDTGRTQLFGPADGSNSLDDNVSSALGSTDKLDYSQSTLASLESQSEEQMGAMGQRIKALKSLSLKMGDEIRGSNQTIDQLGDTFHNTSVKLKRTFGNMMEMARRSG
For the molecule B2, the binding result in the experiment with Sar1p is given as “binds”.
